Measured values as given in paper doi:10.1101/763847.

Target: single-bond CDH23 fusion protein (EC1-5/EC3-5 Fc heterodimer with one EC1-2 binding domain) (mouse)
Assay: single-molecule dynamic force spectroscopy

## single-bond PCDH15 fusion protein (EC1-5/EC3-5 Fc heterodimer with one EC1-2 binding domain) (Fc fusion)
  force sensitivity fβ (force that accelerates the off-rate e-fold): 14.3 pN
  koff: 0.62 s⁻¹
  mean lifetime (1/koff) at zero force: 1.6 s
  mean zero-force lifetime in 50 uM Ca2+: 0.87 s
  single-bond lifetime at a resting tension of 10 pN (calculated from the fit): 1 s
